This note sets out measurements from patent US20210047398A1, “ASPROSIN, A FAST-INDUCED GLUCOGENIC PROTEIN HORMONE” (Baylor College of Medicine, priority 2016, published 2021).

The subject of one data set is AgRP neurons. In words: Whole-cell patch clamp recordings on AgRP neurons. It is filed as cell-based, mice. The method, then: Electrophysiology—Whole-cell patch clamp recordings were performed on identified AgRP neurons or POMC neurons in the brain slices containing the arcuate nucleus of the hypothalamus (ARH). In particular, to identify AgRP neurons, the inventors crossed Rosa26-tdTOMATO allele onto the regular AgRP-Cre mice (Tong et al., 2008) to generate AgRP-Cre/Rosa26-tdTOMATO mice, which express TOMATO selectively in AgRP/NPY neurons. In some studies, the inventors crossed NPY-GFP mice (Pinto et al., 2004) with NPS mice to generate NPY-GFP mice with or without the NPS mutation, and GFP-labelled neurons in the arcuate nucleus were recorded. In order to record POMC neurons, the inventors crossed Rosa26-tdTOMATO allele onto the POMC-CreERT2 mice (Berglund et al., 2013) to generate POMC-CreERT2/Rosa26-tdTOMATO mice, which express TOMATO selectively in mature POMC neurons upon tamoxifen induction (0.2 mg/g, i.p. 6 weeks of age). In some studies, the inventors also crossed the AgRP-DTR allele onto POMC-GFP mice, and these mice received DT or saline injections (described above) to generate mice with or without AgRP neurons ablated.
Six to twelve-week old mice were deeply anesthetized with isoflurane and transcardially perfused with a modified ice-cold sucrose-based cutting solution (pH 7.3) containing 10 mM NaCl, 25 mM NaHCO3, 195 mM Sucrose, 5 mM Glucose, 2.5 mM KCl, 1.25 mM NaH2PO4, 2 mM Na-Pyruvate, 0.5 mM CaCl2, and 7 mM MgCl2, bubbled continuously with 95% O2 and 5% CO2 (Ren et al., 2012). The mice were then decapitated, and the entire brain was removed and immediately submerged in the cutting solution. Slices (250 μm) were cut with a Microm HM 650V vibratome (Thermo Scientific). Three brain slices containing the arcuate nucleus were obtained for each animal (Bregma −2.06 mm to −1.46 mm; Interaural 1.74 mm to 2.34 mm), and recordings were made at levels throughout this brain region. The slices were recovered for 1 h at 34° C. and then maintained at room temperature in artificial cerebrospinal fluid (aCSF, pH 7.3) containing 126 mM NaCl, 2.5 mM KCl, 2.4 mM CaCl2, 1.2 mM NaH2PO4, 1.2 mM MgCl2, 11.1 mM glucose, and 21.4 mM NaHCO3) saturated with 95% O2 and 5% CO2 before recording.
Slices were transferred to a recording chamber and allowed to equilibrate for at least 10 min before recording. The slices were superfused at 34° C. in oxygenated aCSF at a flow rate of 1.8-2 ml/min. GFP or TOMATO-labeled neurons in the ARH were visualized using epifluorescence and IR-DIC imaging on an upright microscope (Eclipse FN-1, Nikon) equipped with a moveable stage (MP-285, Sutter Instrument). Patch pipettes with resistances of 3-5 MΩ were filled with intracellular solution (pH 7.3) containing 128 mM K-Gluconate, 10 mM KCl, 10 mM HEPES, 0.1 mM EGTA, 2 mM MgCl2, 0.05 mM Na-GTP and 0.05 mM Mg-ATP. Recordings were made using a MultiClamp 700B amplifier (Axon Instrument), sampled using Digidata 1440A and analyzed offline with pClamp 10.3 software (Axon Instruments). Series resistance was monitored during the recording, and the values were generally <10 MΩ and were not compensated. The liquid junction potential was +12.5 mV, and was corrected after the experiment. Data were excluded if the series resistance increased dramatically during the experiment or without overshoot for action potential. Currents were amplified, filtered at 1 kHz, and digitized at 20 kHz. Current clamp was engaged to test neural firing frequency and resting membrane potential (RM) at the baseline and puff delivered recombinant Asprosin (500 ms at various concentrations indicated in the figures). For the asprosin antibody pre-incubation experiment, asprosin and anti-asprosin mAB or IgG were gently mixed at a 1:100 ratio, and then kept on ice for one hour before recording. After AgRP or POMC neuron response to asprosin alone was confirmed, the mixture of recombinant asprosin and anti-asprosin mAB or IgG was perfused to treat the AgRP or POMC neurons for 4 minutes. […]
(In general: Patch clamp records ionic current or voltage across a cell membrane.)

For data set [1] the following is noted: rat, in vivo, iv.
Data set [2] in a line: Plasma asprosin, glucose, insulin and hormones in mice after asprosin gain-of-function. Format: in vivo. The method, then: Animals. […] MgR heterozygous mice were obtained from Jackson labs, and bred to obtain male MgR homozygous mice and WT littermates. 5-week-old male Ob/Ob mice were obtained from Jackson labs. […] For diet induced obesity studies, mice were placed on the adjusted calories diet providing 60% of calories from fat by Harlan-Teklad for 12 weeks. […] Mice were exposed to 30 μg recombinant His-tagged asprosin or recombinant Green Fluorescent Protein (GFP) daily for 10 days via subcutaneous injection. Mice were sacrificed and plasma and various organs were isolated 10 days after virus or peptide injection. For single dose injections, the same protocol was followed as that for daily injections, followed by collection of plasma at the indicated times via tail bleeds for insulin and glucose measurement. Insulin and glucose tolerance tests (ITT and GTT) were performed using standard procedures. […] For immunologic sequestration experiments, mice were injected intra-peritoneally with a 500 μg dose in saline of a custom-built (Thermo Scientific Inc.) anti-asprosin mouse monoclonal antibody directed against amino acids 106-134 (human profibrillin amino acids 2837-2865) or an equivalent dose of isotype matched IgG (Southern Biotech, Inc.). […] The Baylor College of Medicine Institutional Animal Care and Utilization Committee approved all experiments.
Plasma metabolic parameters. Human plasma insulin was measured using a human insulin ELISA kit by Abcam. Mouse plasma insulin was measured using a mouse insulin ELISA kit by Millipore. Mouse plasma glucagon, epinephrine, norepinephrine and corticosterone were measured by the Vanderbilt University Hormone Assay & Analytical Services Core.

[3] abbreviates: 2 hours after single 30 μg dose.

B1: recombinant asprosin: 146 amino acid E. coli expressed fusion protein: 6 amino acid N-terminal His tag and 140 amino acid wild type asprosin (FBN1 2732-2871) (protein)
chain: HHHHHHSTNETDASNIEDQSETEANVSLASWDVEKTAIFAFNISHVSNKVRILELLPALTTLTNHNRYLIESGNEDGFFKINQKEGISYLHFTKKKPVAGTYSLQISSTPLYKKKELNQLEDKYDKDYLSGELGDNLKMKIQVLLH
Turning to B1, in the data set on AgRP neurons, the “miniature excitatory post-synaptic current (mEPSC) of AgRP neurons” value is listed as “increased the amplitude but not frequency” and the “proportion of AgRP neurons asprosin-responsive” value is listed as “about 50%”. Also, the “dose-dependency of AgRP neuron activation (firing frequency, membrane potential)” value in the data set with AgRP neurons (0.01-100 nM, intact slices) is recorded as “dose-dependent activation”. Further, the “asprosin-mediated activation with synaptic inputs pharmacologically inhibited” value in the data set on AgRP neurons (TTX or TTX + AP-5 + CNQX + bicuculline) is on record as “no decrease in asprosin-mediated activation”. In addition, in the data set with AgRP neurons (firing frequency and membrane potential), the “EC50 for AgRP neuron activation” value is reported as “nanomolar to subnanomolar range”. The “AgRP neuron firing frequency and membrane potential” value in the data set on AgRP neurons (recombinant asprosin puff) is recorded as “acutely induced their activation”. Also, in data set [1], the “elevation in CSF asprosin” value was determined as 6 fold and the “his-tag signal in the CSF” value is on record as “strong his-tag signal”. Moreover, the “plasma levels of catabolic hormones (glucagon, catecholamines, glucocorticoids)” value in data set [2] (15-20 minutes after single 30 μg dose) is “no effect”. The plasma insulin result in data set [2] (15 minute time-point after single dose, 2-hour fast) is listed as “compensatory hyperinsulinemia”. In addition, in data set [2] (setting [3]), the “glucose uptake in peripheral organs in glucose- and insulin-tolerance tests” value is “little evidence of altered glucose uptake”; the “peak glucose levels in glucose- and insulin-tolerance tests” value is “altered peak glucose levels”. Besides, in data set [2] (10 days of exposure, 2-hour fasted mice), the “glucose and insulin levels” value is on record as “elevated”. The “blood glucose levels after a single dose” value in data set [2] (single 30 μg subcutaneous dose, 2-hour preceding fast) is “immediate spike”. Moreover, in data set [2] (single dose, 2-hour fast), the “time to normalized blood glucose levels post injection” value was at most 60 min. For the same molecule, the “rate of the blood glucose spike” value in data set [2] (single dose, overnight preceding fast, otherwise similar results) was “somewhat slower”. In addition, the “insulin deficit of MgR mice” value in data set [2] (single subcutaneous administration, overnight fasted MgR mice) was “sufficient to completely rescue the insulin deficit”.
